Where “and” joins values, the source holds several entries; their conditions need not be identical. Equal entries are not always repeated.
Experiments:
[1] = Thermal shift assay via nanoDSF measurement (unfolding temperature); format: physicochemical; conditions: Prometheus NT.Plex, 3° C./min, 0.06-0.5 mg/ml
Method: The thermal shift assay was performed via nanoDSF (differential scanning fluorimetry) measurements using Prometheus NT.Plex nanoDSF (NanoTemper Technologies). The measurement was initialized using the software PR.ThermoControl. Prometheus can precisely characterize samples by measuring the thermal unfolding, chemical denaturation and aggregation within one single run (NanoTemper Technologies, 2019). By gradually heating the sample until reaching 95° C., the protein unfolds. Thereby, the chemical environment of tryptophan residues changes (change in intrinsic tryptophan fluorescence of protein due to more aqueous environment), causing a red-shift in fluorescence (tryptophan fluorescence emission shift). By plotting the fluorescence ratio 350/330 nm against the temperature, the melting temperature Tm can be determined. Calculating the first derivative of raw data gives a peak curve with its maximum indicating the unfolding temperature Tm.
For the sample preparation, a concentration of 0.5 mg/ml was adjusted for the hGCase mutants. For variant I5N and R495HS2, protein concentrations of 0.075 mg/ml (I5N) and 0.06 mg/ml (R495HS2) were applied due to low protein yields. 15 μl total sample volume was uptaken in each capillary of the capillary rack (Prometheus NT.Plex Capillary Chips, NanoTemper) and placed in the device. The excitation power was adjusted to 20-80%, depending on the applied protein concentration. The gradually heating was set to 3° C./min until reaching 95° C. (20° C. was set as starting temperature). The evaluation and calculation of the first derivative was done using the NanoTemper PR.ThermoControl software, the final evaluation and graphing was done using the PR.StabilityAnalysis software.
On the one hand, a successively increasing temperature gradient was applied to measure melting temperatures of protein molecules via nanoDSF (differential scanning fluorimetry) measurement using Prometheus NT.Plex (NanoTemper Technologies, 2019). The sample is gradually heated by increasing the temperature until reaching 95° C. Thereby, the protein unfolds and tryptophan residues experience a change in chemical environment (exposure to a more aqueous environment), which changes the intrinsic tryptophan fluorescence of the protein, causing a red shift in the fluorescent spectrum (350/330 nm=tryptophan fluorescence emission shift) (Schubert, 2015). In FIG. 1, typical melting curves of such an unfolding experiment are shown.
In the upper section of the graphs (FIGS. 1 (A) and (B)), the raw data (progression curves) measured with nanoDSF is plotted, indicating the shift in the fluorescence ratio 350/330 nm during the course of the measurement with increasing temperature. The calculation of the first derivative, giving peak curves (lower section of graphs in (A) and (B)), was done according to default settings of the Software PR.StabilityAnalysis (table 2). Peak maxima (thermal unfolding transition midpoint) indicate the unfolding temperature Tm, where half of the proteins are unfold (Schubert, 2015).

[2] = pH screening of hGCase variants (activity assay, pH 3.5-8); format: biochemical; conditions: for relative activity: pH 3.5, 20 mM citric acid buffer, highest activity = 100%; for shape of pH spectrum: pH 3.5-8
Method: For all further GCase characterization experiments including the activity assay, 20 μM substrate concentration, 30-40 min incubation time and protein concentrations ranging from 25-100 nM were set as final assay settings to ensure measurements in the linear range. The overall DMSO concentration within the assay was kept at 0.5% (v/v) or even below, since DMSO influences the fluorescent signal with higher concentrations (experimentally tested, data not shown; confirmed by (Urban et al., 2008). Therefore, GCase activity buffer+1% (v/v) DMSO was also used for dilutions (table 2.9). The plate reader SpectraMax i3 (Molecular Devices) including the analysis software SoftMax Pro 6.4 was used for all activity measurements within this work. The program settings were kept the same for all activity runs: kinetic run, measurement temperature: 37° C., PMT Gain: high; flashes per read: 6; read height: 0.73305 mm from plate.
A pH optimum screening was done to observe a possible shift in the pH spectrum of the new variants due to structural modification of the enzymes. Therefore, three different buffers were used, covering a pH range of pH 3.5 to 8. For the screening, buffer substances were chosen after the use for purification buffers. Therefore, following buffers were prepared: Citric acid buffer (20 mM, pH 3.5-5), MES buffer (20 mM, pH 6-6.5) and HEPES buffer (20 mM, pH 7-8). The final protein concentration used for this assay was 75 nM. The activity assay was done as described in section 2.3.5 (table 2.11), merely the buffer was varied.
A possible pH optimum shift due to structural modifications should be examined. Since the GCase enzyme originally occurs within the lysosome, its natural pH optimum is reported to be between pH 4.7-6.0 (Lieberman et al., 2007; Liou et al., 2006; Tan et al., 2014). This could change when including slight modifications in the structure of the molecule. Thus, the mutants were tested within a pH range of 3.5 to 8 for enzymatic activity.

hGCase = test: Inhibition of hGCase using isofagomine (IFG), IC50 determination; format: biochemical, human; conditions: reversible inhibitor isofagomine on the named hGCase variant; 25 nM protein, 10 min pre-incubation at RT, 20 μM res-β-glc
Method: IFG is a competitive, reversible inhibitor of hGCase, interacting with the active pocket of the enzyme (Powe et al., 2006).
To calculate the IC50, a concentration range of 0.002-100 μM IFG was tested. IFG was prepared with a stock concentration of 1 mM in DMSO. The final enzyme concentration was 25 nM. After adding the inhibitor to the enzyme, the solution was pre-incubated for 10 min at RT before adding the substrate (20 μM) for the activity measurement.
The evaluation and IC50 determination were done using GraphPad Prism7. hGCase activity with no inhibitor added was set to 100% relative enzyme activity. In case of evaluating the raw data via GraphPadPrism7, the applied inhibitor concentrations were first transformed to log 10×-values plottet on the x-axis. Further, the raw data measured with the activity assay in RFU was normalized to the highest activity value within one data set (equals 100%). 100% signal was defined as 10-12 μM IFG (=no inhibitor added). Data points were fitted and IC50 values were determined using log(inhibitor) vs. response-variable slope (four parameters) (GraphPadPrism7) following equation 9: […]
To determine whether the active binding site of an enzyme is compromised or altered, IC50 values were calculated for active site inhibitor and compared. In this work, the natural occurring GCase inhibitor isofagomine (IFG) and conditurol-β-epoxide (CBE) were used. IFG is known as a reversible inhibitor, interacting with the active site of the GCase enzyme, whereas CBE is an irreversible inhibitor of GCase (Powe et al., 2006). The IC50 of an enzyme is defined as the concentration of an inhibitor, where the response, in this case the enzyme activity, is reduced by half (Kalliokoski et al., 2013). Both assays were conducted as described in section 2.5.6. The inhibitor profiles of M53T/P55T using IFG and CBE as well as the IC50 profiles of all residual mutants combined are shown in FIG. 4.
The raw data was plotted by transforming the applied IFG/CBE concentration to a logarithmic scale (x-axis, FIG. 4) and by normalizing the activity signal with highest signal of each data set to 100% (defined with apparent inhibitor concentration of 10-12 μM, equal to no inhibitor). IC50 values were calculated using GraphPad Prism7 following equation 9.

Row | IC50 (hGCase) | shape of pH spectrum [2] | Molecule | unfolding temperature Tm [1] | relative activity [2]
1 | 17 nM | – | R495HS2: hGCase based on the Cerezyme sequence (R495H) but produced in S2 cells, His8-tagged; Seq. Id. No. 1 (protein, listed as Homo sapiens, His8 tag) ARPCIPKSFGYSSVVCVCNATYCDSFDPPTFPALGTFSRYESTRSGRRMELSMGPIQANHTGTGLLLTLQPEQKFQKVKGFGGAMTDAAALNILALSPPAQNLLLKSYFSEEGIGYNIIRVPMASCDFSIRTYTYADTPDDFQLHNFSLPEEDTKLKIPLIHRALQLAQRPVSLLASPWTSPTWLKTNGAVNGKGSLKGQPGDIYHQTWARYFVKFLDAYAEHKLQFWAVTAENEPSAGLLSGYPFQCLGFTPEHQRDFIARDLGPTLANSTHHNVRLLMLDDQRLLLPHWAKVVLTDPEAAKYVHGIAVHWYLDFLAPAKATLGETHRLFPNTMLFASEACVGSKFWEQSVRLGSWDRGMQYSHSIITNLLYHVVGWTDWNLALNPEGGPNWVRNFVDSPIIVDITKDTFYKQPMFYHLGHFSKFIPEGSQRVGLVASQKNDLDAVALMHPDGSAVVVVLNRSSKDVPLTIKDPAVGFLETISPGYSIHTYLWHRQ | 54.6 °C and 54.6 ± 0.0 °C | 80%
2 | 35 ± 11 nM | more bell-shaped pH spectrum | K321N/H145L: Amicus double mutant hGCase R495H/K321N/H145L produced in S2 cells; Seq. Id. No. 3 (protein, listed as Homo sapiens, Amicus double mutant hGCase R495H/K321N/H145L produced in S2 cells; Id; No. 3) ARPCIPKSFGYSSVVCVCNATYCDSFDPPTFPALGTFSRYESTRSGRRMELSMGPIQANHTGTGLLLTLQPEQKFQKVKGFGGAMTDAAALNILALSPPAQNLLLKSYFSEEGIGYNIIRVPMASCDFSIRTYTYADTPDDFQLLNFSLPEEDTKLKIPLIHRALQLAQRPVSLLASPWTSPTWLKTNGAVNGKGSLKGQPGDIYHQTWARYFVKFLDAYAEHKLQFWAVTAENEPSAGLLSGYPFQCLGFTPEHQRDFIARDLGPTLANSTHHNVRLLMLDDQRLLLPHWAKVVLTDPEAAKYVHGIAVHWYLDFLAPANATLGETHRLFPNTMLFASEACVGSKFWEQSVRLGSWDRGMQYSHSIITNLLYHVVGWTDWNLALNPEGGPNWVRNFVDSPIIVDITKDTFYKQPMFYHLGHFSKFIPEGSQRVGLVASQKNDLDAVALMHPDGSAVVVVLNRSSKDVPLTIKDPAVGFLETISPGYSIHTYLWHRQ | 57.3 ± 0.0 °C | –
3 | 28 ± 3 nM | – | K321N: Amicus single mutant hGCase R495H/K321N produced in S2 cells; Seq. Id. No. 2 (protein, listed as Homo sapiens, Amicus single mutant hGCase R495H/K321N produced in S2 cells; Id; No. 2) ARPCIPKSFGYSSVVCVCNATYCDSFDPPTFPALGTFSRYESTRSGRRMELSMGPIQANHTGTGLLLTLQPEQKFQKVKGFGGAMTDAAALNILALSPPAQNLLLKSYFSEEGIGYNIIRVPMASCDFSIRTYTYADTPDDFQLHNFSLPEEDTKLKIPLIHRALQLAQRPVSLLASPWTSPTWLKTNGAVNGKGSLKGQPGDIYHQTWARYFVKFLDAYAEHKLQFWAVTAENEPSAGLLSGYPFQCLGFTPEHQRDFIARDLGPTLANSTHHNVRLLMLDDQRLLLPHWAKVVLTDPEAAKYVHGIAVHWYLDFLAPANATLGETHRLFPNTMLFASEACVGSKFWEQSVRLGSWDRGMQYSHSIITNLLYHVVGWTDWNLALNPEGGPNWVRNFVDSPIIVDITKDTFYKQPMFYHLGHFSKFIPEGSQRVGLVASQKNDLDAVALMHPDGSAVVVVLNRSSKDVPLTIKDPAVGFLETISPGYSIHTYLWHRQ | 56.2 ± 0.1 °C | –
4 | ~40 nM and 40 nM | more bell-shaped pH spectrum | M53T/P55T: recombinant human β-glucocerebrosidase variant R495H/M53T/P55T, S2 cells; Seq. Id. No. 7 (protein, listed as Homo sapiens, recombinant human β-glucocerebrosidase variant R495H/M53T/P55T, S2 cells; Id; No. 7) ARPCIPKSFGYSSVVCVCNATYCDSFDPPTFPALGTFSRYESTRSGRRMELSTGTIQANHTGTGLLLTLQPEQKFQKVKGFGGAMTDAAALNILALSPPAQNLLLKSYFSEEGIGYNIIRVPMASCDFSIRTYTYADTPDDFQLHNFSLPEEDTKLKIPLIHRALQLAQRPVSLLASPWTSPTWLKTNGAVNGKGSLKGQPGDIYHQTWARYFVKFLDAYAEHKLQFWAVTAENEPSAGLLSGYPFQCLGFTPEHQRDFIARDLGPTLANSTHHNVRLLMLDDQRLLLPHWAKVVLTDPEAAKYVHGIAVHWYLDFLAPAKATLGETHRLFPNTMLFASEACVGSKFWEQSVRLGSWDRGMQYSHSIITNLLYHVVGWTDWNLALNPEGGPNWVRNFVDSPIIVDITKDTFYKQPMFYHLGHFSKFIPEGSQRVGLVASQKNDLDAVALMHPDGSAVVVVLNRSSKDVPLTIKDPAVGFLETISPGYSIHTYLWHRQ | 55.3 ± 0.1 °C | 80%

From patent publication US20220325265A1, “GLUCOCEREBROSIDASE MUTANTS” (Hoffmann-la Roche Inc., priority 2019, published 2022)
